± gives the standard deviation of the averaged measurements.
Assay: total protein half-life in vivo (active degradation + dilution); higher = more stable protein
[1] = E. coli NCM3722 delta-clpP delta-lon delta-hslV, growth: N-lim chemostat, doubling time 6 h
[2] = E. coli NCM3722 delta-clpP, growth: N-lim chemostat, doubling time 6 h
[3] = E. coli NCM3722 delta-hslV, growth: N-lim chemostat, doubling time 6 h
[4] = E. coli NCM3722 delta-lon, growth: N-lim chemostat, doubling time 6 h
[5] = E. coli NCM3722 delta-smpB, growth: N-lim chemostat, doubling time 6 h
[6] = wild type E. coli NCM3722, growth: C-lim chemostat, doubling time 3 h
[7] = wild type E. coli NCM3722, growth: C-lim chemostat, doubling time 6 h
[8] = wild type E. coli NCM3722, growth: C-lim chemostat, doubling time 12 h
[9] = wild type E. coli NCM3722, growth: N-lim chemostat, doubling time 6 h
[10] = wild type E. coli NCM3722, growth: N-lim chemostat, doubling time 12 h
[11] = wild type E. coli NCM3722, growth: P-lim chemostat, doubling time 6 h
[12] = wild type E. coli NCM3722, growth: P-lim chemostat, doubling time 12 h

| Sequence | total protein half-life in vivo [1] | total protein half-life in vivo [2] | total protein half-life in vivo [3] | total protein half-life in vivo [4] | total protein half-life in vivo [5] | total protein half-life in vivo [6] | total protein half-life in vivo [7] | total protein half-life in vivo [8] | total protein half-life in vivo [9] | total protein half-life in vivo [10] | total protein half-life in vivo [11] | total protein half-life in vivo [12] |
| --- | --- | --- | --- | --- | --- | --- | --- | --- | --- | --- | --- | --- |
| MEMTNAQRLILSNQYKMMTMLDPANAERYRRLQTIIERGYGLQMRELDREFGELKEETCRTIIDIMEMYHALHVSWSNLQDQQSIDERRVTFLGFDAATEARYLGYVRFMVNVEGRYTHFDAGTHGFNAQTPMWEKYQRMLNVWHACPRQYHLSANEINQIINA [P0A8W8] | 6.72 ± 0.27 h | 6.41 ± 0.99 h | 6.154 ± 0.032 h | 6.11 ± 0.3 h | 5.32 ± 0.45 h | 3.28 ± 0.18 h | 6.14 ± 0.35 h | 12.1 ± 0.18 h | 5.83 ± 0.58 h | 12.9 ± 2.1 h | 6.41 ± 0.61 h | > 16 h |
| MEMYFKRMKDEWTGLVEQADPPIRAKAAEIAVAHAHYLSIEFYRIVRIDPHAEEFLSNEQVERQLKSAMERWIINVLSAQVDDVERLIQIQHTVAEVHARIGIPVEIVEMGFRVLKKILYPVIFSSDYSAAEKLQVYHFSINSIDIAMEVMTRAFTFSDSSASKEDENYRIFSLLENAEEEKERQIASILSWEIDIIYKILLDSDLGSSLPLSQADFGLWFNHKGRHYFSGIAEVGHISRLIQDFDGIFNQTMRNTRNLNNRSLRVKFLLQIRNTVSQIITLLRELFEEVSRHEVGMDVLTKLLNRRFLPTIFKREIAHANRTGTPLSVLIIDVDKFKEINDTWGHNTGDEILRKVSQAFYDNVRSSDYVFRYGGDEFIIVLTEASENETLRTAERIRSRVEKTKLKAANGEDIALSLSIGAAMFNGHPDYERLIQIADEALYIAKRRGRNRVELWKASL [P0AA89] | 6.71 ± 1.4 h | 3.48 ± 0.94 h | 2.854 ± 0.0076 h | 4.26 ± 0.88 h | 2.81 ± 0.03 h | 1.66 ± 0.26 h | 3.16 ± 0.017 h | 4.49 ± 0.37 h | 3.21 ± 0.42 h | 4.83 ± 0.27 h | 1.49 ± 0.32 h | 3.09 ± 0.069 h |
| MENNRNFPARQFHSLTFFAGLCIGITPVAQALAAEGQTNADDTLVVEASTPSLYAPQQSADPKFSRPVADTTRTMTVISEQVIKDQGATNLTDALKNVPGVGAFFAGENGNSTTGDAIYMRGADTSNSIYIDGIRDIGSVSRDTFNTEQVEVIKGPSGTDYGRSAPTGSINMISKQPRNDSGIDASASIGSAWFRRGTLDVNQVIGDTTAVRLNVMGEKTHDAGRDKVKNERYGVAPSVAFGLGTANRLYLNYLHVTQHNTPDGGIPTIGLPGYSAPSAGTAALNHSGKVDTHNFYGTDSDYDDSTTDTATMRFEHDINDNTTIRNTTRWSRVKQDYLMTAIMGGASNITQPTSDVNSWTWSRTANTKDVSNKILTNQTNLTSTFYTGSIGHDVSTGVEFTRETQTNYGVNPVTLPAVNIYHPDSSIHPGGLTRNGANANGQTDTFAIYAFDTLQITRDFELNGGIRLDNYHTEYDSATACGGSGRGAITCPTGVAKGSPVTTVDTAKSGNLMNWKAGALYHLTENGNVYINYAVSQQPPGGNNFALAQSGSGNSANRTDFKPQKANTSEIGTKWQVLDKRLLLTAALFRTDIENEVEQNDDGTYSQYGKKRVEGYEISVAGNITPAWQVIGGYTQQKATIKNGKDVAQDGSSSLPYTPEHAFTLWSQYQATDDISVGAGARYIGSMHKGSDGAVGTPAFTEGYWVADAKLGYRVNRNLDFQLNVYNLFDTDYVASINKSGYRYHPGEPRTFLLTANMHF |  |  |  |  |  | 3.14 ± 0.17 h |  | > 16 h | > 8 h | > 16 h |  |  |
| MEPKTKKQRSLYIPYAGPVLLEFPLLNKGSAFSMEERRNFNLLGLLPEVVETIEEQAERAWIQYQGFKTEIDKHIYLRNIQDTNETLFYRLVNNHLDEMMPVIYTPTVGAACERFSEIYRRSRGVFISYQNRHNMDDILQNVPNHNIKVIVVTDGERILGLGDQGIGGMGIPIGKLSLYTACGGISPAYTLPVVLDVGTNNQQLLNDPLYMGWRNPRITDDEYYEFVDEFIQAVKQRWPDVLLQFEDFAQKNAMPLLNRYRNEICSFNDDIQGTAAVTVGTLIAASRAAGGQLSEKKIVFLGAGSAGCGIAEMIISQTQREGLSEEAARQKVFMVDRFGLLTDKMPNLLPFQTKLVQKRENLSDWDTDSDVLSLLDVVRNVKPDILIGVSGQTGLFTEEIIREMHKHCPRPIVMPLSNPTSRVEATPQDIIAWTEGNALVATGSPFNPVVWKDKIYPIAQCNNAFIFPGIGLGVIASGASRITDEMLMSASETLAQYSPLVLNGEGMVLPELKDIQKVSRAIAFAVGKMAQQQGVAVKTSAEALQQAIDDNFWQAEYRDYRRTSI | 6.33 ± 0.63 h | 6.5 ± 0.58 h | 5.686 ± 0.037 h | 6.01 ± 0.3 h | 6.06 ± 0.73 h | 3.1 ± 0.2 h | 5.94 ± 0.31 h | 10.8 ± 0.22 h | 5.23 ± 0.31 h | 10.8 ± 0.32 h | 6.05 ± 0.42 h | 12.1 ± 0.8 h |
| MEQAHTQLIAQLNERILAADNTPLYIKFAETVKNAVRSGVLEHGNILPGERDLSQLTGVSRITVRKAMQALEEEGVVTRSRGYGTQINNIFEYSLKEARGFSQQVVLRGKKPDTLWVNKRVVKCPEEVAQQLAVEAGSDVFLLKRIRYVDEEAVSIEESWVPAHLIHDVDAIGISLYDYFRSQHIYPQRTRSRVSARMPDAEFQSHIQLDSKIPVLVIKQVALDQQQRPIEYSISHCRSDLYVFVCEE [P0ACM5] | 5.72 ± 0.0036 h |  | 4.14 ± 0.2 h | 4.55 ± 0.12 h | 3.91 ± 0.15 h | 2.75 ± 0.084 h | 4.84 ± 0.37 h | 8.6 ± 0.18 h | 4.04 ± 0.17 h | 6.99 ± 0.2 h | 4.28 ± 0.053 h | 7.99 ± 0.19 h |
| MEQPVIPVRNIYYMLTYAWGYLQEIKQANLEAIPGNNLLDILGYVLNKGVLQLSRRGLELDYNPNTEIIPGIKGRIEFAKTIRGFHLNHGKTVSTFDMLNEDTLANRIIKSTLAILIKHEKLNSTIRDEARSLYRKLPGISTLHLTPQHFSYLNGGKNTRYYKFVISVCKFIVNNSIPGQNKGHYRFYDFERNEKEMSLLYQKFLYEFCRRELTSANTTRSYLKWDASSISDQSLNLLPRMETDITIRSSEKILIVDAKYYKSIFSRRMGTEKFHSQNLYQLMNYLWSLKPENGENIGGLLIYPHVDTAVKHRYKINGFDIGLCTVNLGQEWPCIHQELLDIFDEYLK |  |  |  |  |  | 3.05 ± 0.89 h | 5.31 h | > 16 h |  |  | 5.09 ± 0.42 h | 7.9 ± 0.14 h |
| MEQVVIVDAIRTPMGRSKGGAFRNVRAEDLSAHLMRSLLARNPALEAAALDDIYWGCVQQTLEQGFNIARNAALLAEVPHSVPAVTVNRLCGSSMQALHDAARMIMTGDAQACLVGGVEHMGHVPMSHGVDFHPGLSRNVAKAAGMMGLTAEMLARMHGISREMQDAFAARSHARAWAATQSAAFKNEIIPTGGHDADGVLKQFNYDEVIRPETTVEALATLRPAFDPVNGMVTAGTSSALSDGAAAMLVMSESRAHELGLKPRARVRSMAVVGCDPSIMGYGPVPASKLALKKAGLSASDIGVFEMNEAFAAQILPCIKDLGLIEQIDEKINLNGGAIALGHPLGCSGARISTTLLNLMERKDVQFGLATMCIGLGQGIATVFERV | 4.38 ± 0.27 h | 3.05 ± 0.081 h | 2.922 ± 0.023 h | 2.52 ± 0.046 h | 3.22 ± 0.013 h | 3.36 ± 0.57 h | 5 ± 0.57 h | 9.67 ± 0.97 h | 3.18 ± 0.39 h | 4.39 ± 0.12 h | 5.97 ± 0.56 h | 11.5 ± 0.95 h |

Source: the supplement of paper PMC11246515
